ChEMBL document CHEMBL2074521, “Partial purification and reconstitution of the human multidrug-resistance pump: characterization of the drug-stimulatable ATP hydrolysis” (Proc Natl Acad Sci U S A, 1992)

Test system: COc1cc2c(c(OC)c1OC)-c1ccc(OC)c(=O)cc1[C@@H](NC(C)=O)CC2
Assay: TP_TRANSPORTER: ATP hydrolysis in reconstituted proteoliposomes
Assay type: functional, subcellular

Substance: ATP-dependent translocase ABCB1 (Homo sapiens)
- Km: 45 µM
